Experimental data: US20140105902A1 (SAMSUNG ELECTRONICS, published 2014)

Target: c-Met, endogenous in human cell lines (NCI-H441, EBC-1, MKN45, HCC827 ER15, HEK293) (human, UniProt P08581 25-1390)
Experiment: cell-based or functional assay

c-Met, endogenous in human cell lines (NCI-H441, EBC-1, MKN45, HCC827 ER15, HEK293), sequence (P08581 25-1390): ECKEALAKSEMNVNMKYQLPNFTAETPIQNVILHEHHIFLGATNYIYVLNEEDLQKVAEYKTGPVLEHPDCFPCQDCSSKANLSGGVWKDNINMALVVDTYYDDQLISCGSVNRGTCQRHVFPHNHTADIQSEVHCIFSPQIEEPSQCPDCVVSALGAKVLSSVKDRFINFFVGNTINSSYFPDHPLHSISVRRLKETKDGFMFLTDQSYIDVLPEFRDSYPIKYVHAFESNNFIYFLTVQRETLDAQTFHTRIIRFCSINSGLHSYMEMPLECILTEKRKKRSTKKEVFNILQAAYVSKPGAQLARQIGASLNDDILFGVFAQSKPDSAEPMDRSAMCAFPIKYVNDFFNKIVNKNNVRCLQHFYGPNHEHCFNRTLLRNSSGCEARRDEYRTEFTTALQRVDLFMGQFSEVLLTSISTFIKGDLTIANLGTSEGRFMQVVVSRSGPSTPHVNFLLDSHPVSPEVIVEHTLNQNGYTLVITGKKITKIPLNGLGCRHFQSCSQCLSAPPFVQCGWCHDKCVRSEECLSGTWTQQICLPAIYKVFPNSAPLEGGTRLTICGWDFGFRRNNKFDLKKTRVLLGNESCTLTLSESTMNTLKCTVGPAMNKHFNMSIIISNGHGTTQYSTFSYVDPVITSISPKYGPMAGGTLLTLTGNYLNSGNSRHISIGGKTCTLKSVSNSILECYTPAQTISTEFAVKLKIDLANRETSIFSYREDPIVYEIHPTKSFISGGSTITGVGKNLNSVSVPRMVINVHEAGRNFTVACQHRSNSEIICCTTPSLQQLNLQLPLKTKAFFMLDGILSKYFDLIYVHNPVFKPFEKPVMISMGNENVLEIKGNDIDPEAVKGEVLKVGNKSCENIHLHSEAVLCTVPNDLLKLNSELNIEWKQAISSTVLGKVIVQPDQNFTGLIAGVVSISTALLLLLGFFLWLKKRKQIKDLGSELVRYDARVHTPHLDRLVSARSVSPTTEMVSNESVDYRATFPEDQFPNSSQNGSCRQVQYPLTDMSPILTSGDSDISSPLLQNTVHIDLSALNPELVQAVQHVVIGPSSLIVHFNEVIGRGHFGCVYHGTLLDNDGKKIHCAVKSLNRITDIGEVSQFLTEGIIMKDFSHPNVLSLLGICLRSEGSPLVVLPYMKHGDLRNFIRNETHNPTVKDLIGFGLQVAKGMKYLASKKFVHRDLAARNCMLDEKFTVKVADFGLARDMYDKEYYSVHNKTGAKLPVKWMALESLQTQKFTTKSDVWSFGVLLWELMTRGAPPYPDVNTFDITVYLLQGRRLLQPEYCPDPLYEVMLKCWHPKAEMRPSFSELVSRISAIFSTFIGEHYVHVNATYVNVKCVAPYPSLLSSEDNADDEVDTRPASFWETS

total c-Met level by ELISA, Cbl siRNA-transformed EBC-1 cells, 5 ug/ml, 24 h, relative to control IgG: ~30%
B1: anti-c-Met antibody L3-1Y (huAbF46-H4-A1 (U6-HC7)) (antibody, V domains shown)
VH: EVQLVESGGGLVQPGGSLRLSCAASGFTFTDYYMSWVRQAPGKGLEWLGFIRNKANGYTTEYSASVKGRFTISRDNSKNTLYLQMNSLRAEDTAVYYCARDNWFAYWGQGTLVTVSS
VL: DIQMTQSPSSLSASVGDRVTITCKSSQSLLASGNQNNYLAWYQQKPGKAPKMLIIWASTRVSGVPSRFSGSGSGTDFTLTISSLQPEDFATYYCQQSYSRPYTFGQGTKVEIKR
